The values that follow come from US20110229476A1 (Bayer, published 2011).

The target of the assay is T1, tumor-associated antigen RG1 (Homo sapiens (Human), UniProt Q9BUD6 27-331).
T1 construct: Coated directly on 96-well plates at 1 ug/ml; also called RGI
T1 sequence: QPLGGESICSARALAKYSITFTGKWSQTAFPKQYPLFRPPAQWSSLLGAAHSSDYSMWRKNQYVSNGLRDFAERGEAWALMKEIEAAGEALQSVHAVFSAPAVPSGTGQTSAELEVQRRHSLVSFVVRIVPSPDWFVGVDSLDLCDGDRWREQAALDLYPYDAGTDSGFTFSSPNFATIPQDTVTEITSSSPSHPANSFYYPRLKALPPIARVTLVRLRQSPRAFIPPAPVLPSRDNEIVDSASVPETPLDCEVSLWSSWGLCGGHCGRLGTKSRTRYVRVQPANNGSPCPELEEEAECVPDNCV
Description: RG1-binding ELISA, RG1 coated on plate, 4-parameter fit. Background: ELISA stands for enzyme-linked immunosorbent assay.

Broadly, the IC50 is the concentration that inhibits the measured activity by half. Low readings indicate greater potency, high ones weaker potency.

Description: RG1-binding ELISA. A bispecific antibody containing Linker 1, anti-RG1 antibody 19G9, and polyclonal nonimmune control human IgG kappa were analyzed for binding to RG-1. Curve fitting of the data was performed using a 4-parameter equation with the Solver function in Microsoft Excel.
Ninety-six well plates were coated with RG1 (1 μg/ml) by overnight incubation, and the plates were then washed (5×) with PBS containing 0.5% Tween-20. Samples and controls (serially diluted) were added to the wells and incubated for 1 hr, followed by washes (5×) with PBS containing 0.5% Tween-20. Horserandish peroxidase (HRP)-conjugated anti-human IgG or HRP-conjugated anti-human Fab were diluted in PBS (1:5000) and added to each well. Following a 1 hr incubation, the plates were washed again. Amplex Red (10 μg/ml) was added to each well, and the signal was read using a plate reader. The data was analyzed using Softmax (Molecular Devices, Sunnyvale, Calif.).

B1: anti-RG1 IgG 19G9 (antibody, V domains shown)
VH: QVQLVQSGGGLVQPGGSLRLSCAGSGFTFSSYVMHWLRQAPGKGLEWVSVIGTGGVTHYADSVKGRFTISRDNAKNSLYLQMNSLRAEDTAVYYCARWGYYGSGSYENDAFDIWGQGTMVTVSS
VL: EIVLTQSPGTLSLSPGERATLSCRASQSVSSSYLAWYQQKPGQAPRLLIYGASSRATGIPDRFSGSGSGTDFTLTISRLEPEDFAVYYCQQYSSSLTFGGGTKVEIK
For the molecule B1, the IC50 was 1.4 nM.
